Drawing on publication PMC4735526 (Nature Communications, 2016), this text covers Kd for 15 molecules.

Among the targets are Sam68 QUA1-KH (UniProt Q07666 97-260); Sam68 QUA1-KH Y241E (UniProt Q07666 97-260, Y241E); Sam68 STAR (UniProt Q07666 97-283).
Holding throughout (experiment): fluorescence polarization; 10 mM Tris pH 7, 100 mM NaCl, 0.1% beta-mercaptoethanol; 0.2 uM fluorescein-labelled RNA; protein 0-200 uM; temperature not stated
On the technique in general: In fluorescence polarisation assays a small probe gives low polarisation when free and higher when bound to something large.

Another data set deals with T1, T-STAR STAR (UniProt O75525 1-183).
T1 sequence: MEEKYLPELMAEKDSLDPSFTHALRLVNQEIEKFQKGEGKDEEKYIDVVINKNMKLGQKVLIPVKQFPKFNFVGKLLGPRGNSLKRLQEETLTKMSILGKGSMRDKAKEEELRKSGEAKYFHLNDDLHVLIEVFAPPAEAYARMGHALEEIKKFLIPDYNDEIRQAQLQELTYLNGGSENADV

In a further data set the target is T2, T-STAR QUA1-KH (UniProt O75525 1-160).
T2 sequence: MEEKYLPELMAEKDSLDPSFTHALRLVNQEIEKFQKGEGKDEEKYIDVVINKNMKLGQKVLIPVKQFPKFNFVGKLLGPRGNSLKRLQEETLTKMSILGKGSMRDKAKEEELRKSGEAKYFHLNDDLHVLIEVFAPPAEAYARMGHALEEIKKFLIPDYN

In the next data set the target is T3, T-STAR QUA1-KH Y141E (UniProt O75525 1-160, Y141E).
T3 sequence: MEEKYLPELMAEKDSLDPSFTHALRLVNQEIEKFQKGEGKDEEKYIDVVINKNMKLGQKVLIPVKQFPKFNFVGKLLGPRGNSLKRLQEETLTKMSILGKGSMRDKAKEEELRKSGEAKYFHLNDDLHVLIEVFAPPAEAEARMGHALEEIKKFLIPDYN

The target of a further data set is T4, T-STAR STAR Y141E (UniProt O75525 1-183, Y141E).
T4 sequence: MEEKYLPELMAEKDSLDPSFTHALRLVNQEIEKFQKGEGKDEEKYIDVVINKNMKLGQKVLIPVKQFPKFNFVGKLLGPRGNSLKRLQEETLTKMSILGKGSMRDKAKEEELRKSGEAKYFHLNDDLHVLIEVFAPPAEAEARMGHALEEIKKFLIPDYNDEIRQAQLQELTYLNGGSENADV

For orientation: Kd means the equilibrium constant for the complex coming apart. For the molecule UAAACCCCCCCCCCCCCCCUAAA (ssRNA) [UAAA-C15-UAAA], the Kd worked out at 6.7 µM with T-STAR STAR; 26.3 µM in the data set with Sam68 QUA1-KH; 6.8 µM in the data set with T-STAR QUA1-KH; 4 µM with Sam68 QUA1-KH Y241E; 4.7 µM in the data set with T-STAR QUA1-KH Y141E; 4.7 µM with T-STAR STAR Y141E.
As to CUAAA (ssRNA), the Kd with Sam68 QUA1-KH was 34 µM; with T-STAR QUA1-KH, 18 µM.
AUAAA (ssRNA): the dissociation constant (Kd) with Sam68 QUA1-KH was 55 µM; with T-STAR QUA1-KH it was 37 µM.
For AAAAA (ssRNA) the same measures were 13 µM and 6 µM.
On the same counts, the results for AUAAU (ssRNA) are 49 µM and 45 µM.
Molecule ACAAA (ssRNA) registered a dissociation constant (Kd) with T-STAR QUA1-KH of 55 µM.
In the case of CCCAAUUAACUAACUAACUAACUUUAAAA (ssRNA) [Nrxn2], the dissociation constant Kd stood at 1.1 µM with T-STAR STAR, 2.2 µM in the data set with Sam68 QUA1-KH, 1.7 µM in the data set with T-STAR QUA1-KH and 3.7 µM with Sam68 STAR.
Regarding UAAACCCCCCCCCCUAAA (ssRNA) [UAAA-C10-UAAA], the dissociation constant (Kd) in the data set with T-STAR STAR worked out at 7 µM; with Sam68 QUA1-KH, 37.3 µM; in the data set with T-STAR QUA1-KH, 8.6 µM; with Sam68 QUA1-KH Y241E it was 3.9 µM; with T-STAR QUA1-KH Y141E, 4.4 µM; with T-STAR STAR Y141E, 4.9 µM.
Consider CUGGGUGACACACUAGCUAUAGCAUUAAAAGACCGAGCAAGU (ssRNA) [G8.5], for which the Kd with T-STAR STAR stood at 11.7 µM; with Sam68 QUA1-KH it was 10.3 µM; with T-STAR QUA1-KH, 8.1 µM; in the data set with Sam68 STAR, 36.1 µM.
For UCCGGAUUGGCCUAAAUAGAUGCGCGAUAAUAAUAGAGUA (ssRNA) [G7.1] the same measures were 5.4 µM, 4.3 µM, 4.5 µM and 8.2 µM.
Regarding UAAACCCCCUAAA (ssRNA) [UAAA-C5-UAAA], the Kd with T-STAR STAR was found to be 5.9 µM; with Sam68 QUA1-KH, 42.7 µM; in the data set with T-STAR QUA1-KH, 5.5 µM; with Sam68 QUA1-KH Y241E, 4.6 µM; with T-STAR QUA1-KH Y141E, 5.3 µM; with T-STAR STAR Y141E, 5.1 µM.
Turning to UUAAA (ssRNA), the dissociation constant Kd was 50 µM with Sam68 QUA1-KH and 16 µM with T-STAR QUA1-KH.
As for UAAACCC (ssRNA), the Kd came out at 7 µM with T-STAR STAR; 50 µM in the data set with Sam68 QUA1-KH; 7.9 µM in the data set with T-STAR QUA1-KH; 27.1 µM with Sam68 QUA1-KH Y241E; 10.9 µM in the data set with T-STAR QUA1-KH Y141E; 6.8 µM in the data set with T-STAR STAR Y141E.
Molecule AUAAC (ssRNA) yielded a Kd in the data set with T-STAR QUA1-KH of 47 µM.

B1: SRE-4 (ssRNA)
RNA: UUUGGGGGUUCAAUAAAAAUUUUCACUAUCCUAUUAACAGUUCCGCCGCUCC
As for B1, the Kd with T-STAR STAR came to 8.5 µM; with Sam68 QUA1-KH, 19.1 µM; with T-STAR QUA1-KH, 9.4 µM; with Sam68 STAR it was 65.7 µM.
